Experimental data published in patent publication US20250326865A1, “C-MET PROTEIN-BINDING PEPTIDE COMPLEX” (PeptiDream Inc., priority 2021, published 2025).
Starred links: 1 amine or outer side, 2 acyl side, 3 side chain; linkers in the order of their positions; H or OH if unused. Positions of bridges follow the written chain, without caps; N, C: chain ends. Non-standard residues stand in square brackets, D forms with d. Residues, ends and D or L forms follow the SMILES beside them. Primed or numbered codes have the meaning given here. Chains are numbered I, II in the order given. No end group written: not given here. CO(CH2)2(OCH2CH2)17CO = O=C(CCOCCOCCOCCOCCOCCOCCOCCOCCOCCOCCOCCOCCOCCOCCOCCOCCOCCC(=O)[*:2])[*:1]; CO(CH2CH2O)9CH2CH2CO = O=C(CCOCCOCCOCCOCCOCCOCCOCCOCCOCCC(=O)[*:2])[*:1]; NMeF = CN[C@@H](Cc1ccccc1)C(=O)O; Ahp(2) = CCCCC[C@H](N)C(=O)O; NMeC = CN[C@@H](CS)C(=O)O; Ahp′ = not defined here

B1: Peptide complex No. 47 in Table 4 (peptide SEQ ID NO: 33, GFs_c-Met-00014300p; linker SEQ ID NO: 38) (peptide)
peptide: {CH2CO}-[NMeF]TAVS[NMeF]DPD[Ahp(2)]PRWS[NMeC]
chain: GK[CO(CH2)2(OCH2CH2)17CO]KG
modifications: thioether I:N-I:15 (inferred); also: homodimer of two cyclic peptides joined by linker G-K-cPEG17c-K-G, peptide C-terminus on linker
B2: GFs_c-Met-00014305-PEG17 dimer (peptide SEQ ID NO: 34, GFs_c-Met-00014336p; linker SEQ ID NO: 38) (peptide)
peptide: {CH2CO}-[NMeF]TAVS[NMeF]DED[Ahp(2)]PRWS[NMeC]
chain: GK[CO(CH2)2(OCH2CH2)17CO]KG
modifications: thioether I:N-I:15 (inferred); also: homodimer: two cyclic peptides joined by linker G-K-cPEG17c-K-G, peptide C-terminus on linker
B3: Peptide complex No. 46 in Table 4 (peptide SEQ ID NO: 32, GFs_c-Met-00014297p; linker SEQ ID NO: 36) (peptide)
peptide: {CH2CO}-[NMeF]TAVS[NMeF]DPD[Ahp(2)]PRWA[NMeC]
chain: GK[CO(CH2CH2O)9CH2CH2CO]KG
modifications: thioether I:N-I:15 (inferred); also: homodimer of two cyclic peptides joined by linker G-K-cPEG9c-K-G, peptide C-terminus on linker
B4: Peptide complex No. 45 in Table 4 (peptide SEQ ID NO: 32, GFs_c-Met-00014297p; linker SEQ ID NO: 38) (peptide)
peptide: {CH2CO}-[NMeF]TAVS[NMeF]DPD[Ahp(2)]PRWA[NMeC]
chain: GK[CO(CH2)2(OCH2CH2)17CO]KG
modifications: thioether I:N-I:15 (inferred); also: homodimer of two cyclic peptides joined by linker G-K-cPEG17c-K-G, peptide C-terminus on linker
B5: Peptide complex No. 44 in Table 4 (peptide SEQ ID NO: 31, Gfs_c-Met-00014294p; linker SEQ ID NO: 36) (peptide)
peptide: {CH2CO}-[NMeF]TAVS[NMeF]DSD[Ahp(2)]PRWA[NMeC]
chain: GK[CO(CH2CH2O)9CH2CH2CO]KG
modifications: thioether I:N-I:15 (inferred); also: homodimer of two cyclic peptides joined by linker G-K-cPEG9c-K-G, peptide C-terminus on linker
B6: Peptide complex No. 42 in Table 4 (peptide SEQ ID NO: 30, GFs_c-Met-00014304p; linker SEQ ID NO: 36) (peptide)
peptide: {CH2CO}-[NMeF]TAVS[NMeF]DSDRPRWS[NMeC]
chain: GK[CO(CH2CH2O)9CH2CH2CO]KG
modifications: thioether I:N-I:15 (inferred); also: homodimer of two cyclic peptides joined by linker G-K-cPEG9c-K-G, peptide C-terminus on linker
B7: Peptide complex No. 40 in Table 4 (peptide SEQ ID NO: 29, GFs_c-Met-00014306p; linker SEQ ID NO: 36) (peptide)
peptide: {CH2CO}-[NMeF]TAVSLDSD[Ahp(2)]PRWS[NMeC]
chain: GK[CO(CH2CH2O)9CH2CH2CO]KG
modifications: thioether I:N-I:15 (inferred); also: homodimer of two cyclic peptides joined by linker G-K-cPEG9c-K-G, peptide C-terminus on linker
B8: Peptide complex No. 41 in Table 4 (peptide SEQ ID NO: 30, GFs_c-Met-00014304p; linker SEQ ID NO: 38) (peptide)
peptide: {CH2CO}-[NMeF]TAVS[NMeF]DSDRPRWS[NMeC]
chain: GK[CO(CH2)2(OCH2CH2)17CO]KG
modifications: thioether I:N-I:15 (inferred); also: homodimer of two cyclic peptides joined by linker G-K-cPEG17c-K-G, peptide C-terminus on linker
B9: Peptide complex No. 48 in Table 4 (peptide SEQ ID NO: 33, GFs_c-Met-00014300p; linker SEQ ID NO: 36) (peptide)
peptide: {CH2CO}-[NMeF]TAVS[NMeF]DPD[Ahp(2)]PRWS[NMeC]
chain: GK[CO(CH2CH2O)9CH2CH2CO]KG
modifications: thioether I:N-I:15 (inferred); also: homodimer of two cyclic peptides joined by linker, peptide C-terminus on linker
B10: GFs_c-Met-00014318-PEG9 dimer (peptide SEQ ID NO: 34, GFs_c-Met-00014336p; linker SEQ ID NO: 36) (peptide)
peptide: {CH2CO}-[NMeF]TAVS[NMeF]DED[Ahp(2)]PRWS[NMeC]
chain: GK[CO(CH2CH2O)9CH2CH2CO]KG
modifications: thioether I:N-I:15 (inferred); also: homodimer: two cyclic peptides joined by linker G-K-cPEG9c-K-G, peptide C-terminus on linker
B11: Peptide complex No. 43 in Table 4 (peptide SEQ ID NO: 31, Gfs_c-Met-00014294p; linker SEQ ID NO: 38) (peptide)
peptide: {CH2CO}-[NMeF]TAVS[NMeF]DSD[Ahp(2)]PRWA[NMeC]
chain: GK[CO(CH2)2(OCH2CH2)17CO]KG
modifications: thioether I:N-I:15 (inferred); also: homodimer of two cyclic peptides joined by linker G-K-cPEG17c-K-G, peptide C-terminus on linker

The molecules below were run against T1, c-Met (Homo sapiens, UniProt P08581) (assay: Phospho-c-Met AlphaLISA assay (c-Met agonist activity) in A431 cells). Settings: c-Met phosphorylation (Tyr1234/1235) in A431 cells, 15 minutes of stimulation; maximum signal induced by HGF = 100%.
T1 construct: endogenous in cells; host or cells: A431 (human)
Type: cell-based
Experimental: To evaluate the activation potency (c-Met agonist activity) of c-Met of the peptide complex of the present invention, the phosphorylation of c-Met was verified. Human A431 cells were cultured in DMEM high glucose, GlutaMAX (registered trademark) Supplement, pyruvate (Thermo Fisher Scientific), containing 10% FBS (Gibco). After cells were detached using Accutase (Innovative cell technologies), they were seeded into a 96-well plate at 10000 cells per well and cultured overnight. The next day, for starvation, the culture medium was changed to DMEM high glucose, GlutaMAX (registered trademark) Supplement, pyruvate (Thermo Fisher Scientific), containing 0.1% BSA (Sigma-Aldrich), and the cells were cultured overnight. Then, the peptide complex synthesized in Example 3 or Recombinant Human HGF Protein (R&D systems) as a control was added, and after 15 minutes of stimulation, cells were lysed in a Lysis Buffer provided in the AlphaLISA (registered trademark) SureFire (registered trademark) Ultra™ Phospho-c-Met (Tyr1234/1235) kit (PerkinElmer). The assay was performed according to the kit protocol, and a SpectraMax (registered trademark) Paradigm (registered trademark) multimode microplate reader (Molecular Devices, LLC.) was used for signal detection. […] In the same manner, the C50 value was calculated by GraphPad Prism as the concentration of peptide showing 50% activity of the signal induced by HGF. […] Further, for a complex (GFs_c-Met-00014336-PEG13 dimer; complex no. 49 in Table 4) of a peptide (SEQ ID NO: 34) and a linker (SEQ ID NO: 37), a graph of c-Met agonist activity is shown in FIG. 1.

T1 sequence (P08581 25-1390): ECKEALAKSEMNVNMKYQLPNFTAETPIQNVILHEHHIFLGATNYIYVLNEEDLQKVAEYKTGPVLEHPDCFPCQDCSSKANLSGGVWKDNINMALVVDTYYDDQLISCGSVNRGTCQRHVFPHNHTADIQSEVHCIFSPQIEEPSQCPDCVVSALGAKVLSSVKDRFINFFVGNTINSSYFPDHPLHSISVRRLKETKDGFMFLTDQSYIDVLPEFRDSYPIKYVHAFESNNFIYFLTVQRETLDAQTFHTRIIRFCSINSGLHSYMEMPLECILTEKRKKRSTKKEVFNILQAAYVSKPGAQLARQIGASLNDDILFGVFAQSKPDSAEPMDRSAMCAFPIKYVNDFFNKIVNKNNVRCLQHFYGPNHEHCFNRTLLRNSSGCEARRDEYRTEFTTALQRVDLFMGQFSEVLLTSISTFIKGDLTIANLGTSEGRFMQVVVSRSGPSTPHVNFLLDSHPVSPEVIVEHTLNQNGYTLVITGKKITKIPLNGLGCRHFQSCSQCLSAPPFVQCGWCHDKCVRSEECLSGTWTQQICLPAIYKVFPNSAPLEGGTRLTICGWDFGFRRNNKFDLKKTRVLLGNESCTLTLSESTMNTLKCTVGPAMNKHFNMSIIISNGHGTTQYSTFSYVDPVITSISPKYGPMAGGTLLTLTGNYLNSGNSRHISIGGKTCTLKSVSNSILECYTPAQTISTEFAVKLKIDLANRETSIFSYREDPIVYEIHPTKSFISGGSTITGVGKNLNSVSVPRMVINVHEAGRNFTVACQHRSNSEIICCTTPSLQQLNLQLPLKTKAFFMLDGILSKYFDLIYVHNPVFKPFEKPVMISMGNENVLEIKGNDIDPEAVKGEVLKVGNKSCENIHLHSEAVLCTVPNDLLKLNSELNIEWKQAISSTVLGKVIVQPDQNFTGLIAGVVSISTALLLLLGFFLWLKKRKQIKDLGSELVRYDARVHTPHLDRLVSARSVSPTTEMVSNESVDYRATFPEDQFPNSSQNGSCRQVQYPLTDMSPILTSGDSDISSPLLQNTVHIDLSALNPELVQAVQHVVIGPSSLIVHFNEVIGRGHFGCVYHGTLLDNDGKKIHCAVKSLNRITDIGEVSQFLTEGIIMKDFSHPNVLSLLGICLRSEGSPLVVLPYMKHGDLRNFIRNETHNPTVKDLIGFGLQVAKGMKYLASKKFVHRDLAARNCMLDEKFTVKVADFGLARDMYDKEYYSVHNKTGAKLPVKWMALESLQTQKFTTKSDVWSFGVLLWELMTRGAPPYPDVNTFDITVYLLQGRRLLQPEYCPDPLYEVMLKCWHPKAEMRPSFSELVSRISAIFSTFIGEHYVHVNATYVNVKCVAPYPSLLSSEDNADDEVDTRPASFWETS

Molecule | C-Met Agonist Activity (2 or 1)
7 ({CH2CO}-[NMeF]VYVS[NMeF]DVD[Ahp′]PRWS[NMeC]; thioether N-15 (inferred); not fully specified; reading uncertain; also: conjugated moiety via linker) [Peptide 7] | 2 (those showing more than 50% activation were described as 2)
4 (AVYVS[NMeF]DDD[Ahp′]PRWS[NMeC]; not fully specified (N-terminus, bridges); reading uncertain; also: conjugated moiety via linker) [Peptide 4] | 1 (those showing less than 50% activation as 1)
6 ([NMeF]VDVS[NMeF]DDD[Ahp′]PRWS[NMeC]; not fully specified; reading uncertain) [Peptide 6] | 2 (those showing more than 50% activation were described as 2)
10 ({CH2CO}-[NMeF]VYVS[NMeF]DDD[Ahp′]PSWS[NMeC]; thioether N-15 (inferred); not fully specified; reading uncertain; also: conjugated moiety via linker) [Peptide 10] | 1 (those showing less than 50% activation as 1)

Same assay, conditions: concentration of peptide showing 50% activity of the signal induced by HGF; A431 cells, 15 minutes of stimulation; read-out: C-Met Agonist Activity (C50; nM)

EC50 [nM] | Molecule
2.37 | CCCCC[C@@H]1NC(=O)[C@H](CC(=O)O)NC(=O)[C@@H]2CCCN2C(=O)[C@H](CC(=O)O)NC(=O)[C@H](Cc2ccccc2)N(C)C(=O)[C@H](CO)NC(=O)[C@H](C(C)C)NC(=O)[C@H](C)NC(=O)[C@H](CCC(=O)O)NC(=O)[C@H](Cc2ccccc2)N(C)C(=O)CSC[C@@H](C(=O)NCC(=O)N[C@@H](CCCCNC(=O)CCOCCOCCOCCOCCOCCOCCOCCOCCOCCOCCOCCOCCOCCOCCOCCOCCOCCC(=O)NCCCC[C@H](NC(=O)CNC(=O)[C@@H]2CSCC(=O)N(C)[C@@H](Cc3ccccc3)C(=O)N[C@@H](CCC(=O)O)C(=O)N[C@@H](C)C(=O)N[C@@H](C(C)C)C(=O)N[C@@H](CO)C(=O)N(C)[C@@H](Cc3ccccc3)C(=O)N[C@@H](CC(=O)O)C(=O)N3CCC[C@H]3C(=O)N[C@@H](CC(=O)O)C(=O)N[C@@H](CCCCC)C(=O)N3CCC[C@H]3C(=O)N[C@@H](CCCNC(=N)N)C(=O)N[C@@H](Cc3c[nH]c4ccccc34)C(=O)N[C@@H](C)C(=O)N2C)C(N)=O)C(N)=O)N(C)C(=O)[C@H](C)NC(=O)[C@H](Cc2c[nH]c3ccccc23)NC(=O)[C@H](CCCNC(=N)N)NC(=O)[C@@H]2CCCN2C1=O [Peptide 27] (I: {CH2CO}-[NMeF]EAVS[NMeF]DPD[Ahp(2)]PRWA[NMeC]GK-NH2 / II: {CH2CO}-[NMeF]EAVS[NMeF]DPD[Ahp(2)]PRWA[NMeC]GK-NH2; linker I:17-II:17 via CO(CH2)2(OCH2CH2)17CO (inferred); thioether I:N-I:15, II:N-II:15 (inferred); C-terminus assumed)

The molecules below were run against human c-Met protein (human, UniProt P08581 25-1390) (assay: cell-based or functional assay). Settings: not given.
Chain of human c-Met protein (P08581 25-1390): as the sequence (P08581 25-1390) above

C-Met Agonist Activity (C50; nM): phospho-c-Met AlphaLISA, A431 cells [nM] | Molecule
0.5 | B1
0.27 | B2
0.67 | B3
0.71 | B4
0.33 | B5
0.33 | B6
2.13 | B7
0.32 | B8
0.35 | B9
0.24 | B10
0.45 | B11
